The numbers were not newly measured in PMC11271873, which cites them from elsewhere.

Conditions in all cases: free peptide
Data set [1] deals with Cterm (position 2, ----KK-----).
Data set [2] deals with Nterm (position 1, -----KK----).
The test system of data set [3] is Cterm (position 3, ---KKK-----).
Data set [4] concerns Nterm (position 1, -----KKK---).

Lys-Lys (di-lysine) (synthetic): the pKa in data set [1] is reported as 3,01; in data set [2], 7,53.
As to Lys-Lys-Lys (tri-lysine) (synthetic), the pKa in data set [3] is 3,08; in data set [4], 7,34.
